First the molecules themselves.
B1: 4-Aminomethylbenzoyl-[Ala26, Ile28,31, Aib30]-PYY(25-36) (peptide)
peptide: [4Amb]RAYIN[Aib]ITRQRY-NH2
modifications: N-terminus assumed
SMILES: CC[C@H](C)[C@H](NC(=O)[C@H](Cc1ccc(O)cc1)NC(=O)[C@H](C)NC(=O)[C@H](CCCNC(=N)N)NC(=O)c1ccc(CN)cc1)C(=O)N[C@@H](CC(N)=O)C(=O)NC(C)(C)C(=O)N[C@H](C(=O)N[C@H](C(=O)N[C@@H](CCCNC(=N)N)C(=O)N[C@@H](CCC(N)=O)C(=O)N[C@@H](CCCNC(=N)N)C(=O)N[C@@H](Cc1ccc(O)cc1)C(N)=O)[C@@H](C)O)[C@@H](C)CC
notes: also called compound No. 47
B2: 4-Aminomethylbenzoyl-[Ala26, Pya(4)27, Ile28,31]-PYY(25-36) (peptide)
peptide: [4Amb]RA[4Pal]INLITRQRY-NH2
modifications: N-terminus assumed
SMILES: CC[C@H](C)[C@H](NC(=O)[C@H](Cc1ccncc1)NC(=O)[C@H](C)NC(=O)[C@H](CCCNC(=N)N)NC(=O)c1ccc(CN)cc1)C(=O)N[C@@H](CC(N)=O)C(=O)N[C@@H](CC(C)C)C(=O)N[C@H](C(=O)N[C@H](C(=O)N[C@@H](CCCNC(=N)N)C(=O)N[C@@H](CCC(N)=O)C(=O)N[C@@H](CCCNC(=N)N)C(=O)N[C@@H](Cc1ccc(O)cc1)C(N)=O)[C@@H](C)O)[C@@H](C)CC
notes: also called compound No. 44
B3: [D-Ala22, Ala26, Ile28,31, Arg(Me)35]-PYY(22-36) (peptide)
peptide: [dA]SLRAYINLITRQ[Arg(Me)]Y-NH2
modifications: N-terminus assumed
SMILES: CC[C@H](C)[C@H](NC(=O)[C@H](Cc1ccc(O)cc1)NC(=O)[C@H](C)NC(=O)[C@H](CCCNC(=N)N)NC(=O)[C@H](CC(C)C)NC(=O)[C@H](CO)NC(=O)[C@@H](C)N)C(=O)N[C@@H](CC(N)=O)C(=O)N[C@@H](CC(C)C)C(=O)N[C@H](C(=O)N[C@H](C(=O)N[C@@H](CCCNC(=N)N)C(=O)N[C@@H](CCC(N)=O)C(=O)N[C@@H](CCCNC(=N)NC)C(=O)N[C@@H](Cc1ccc(O)cc1)C(N)=O)[C@@H](C)O)[C@@H](C)CC
notes: also called compound No. 3
B4: 4-Aminomethylbenzoyl-[Ala26, Aib27, Ile28,31]-PYY(25-36) (peptide)
peptide: [4Amb]RA[Aib]INLITRQRY-NH2
modifications: N-terminus assumed
SMILES: CC[C@H](C)[C@H](NC(=O)[C@H](CC(C)C)NC(=O)[C@H](CC(N)=O)NC(=O)[C@@H](NC(=O)C(C)(C)NC(=O)[C@H](C)NC(=O)[C@H](CCCNC(=N)N)NC(=O)c1ccc(CN)cc1)[C@@H](C)CC)C(=O)N[C@H](C(=O)N[C@@H](CCCNC(=N)N)C(=O)N[C@@H](CCC(N)=O)C(=O)N[C@@H](CCCNC(=N)N)C(=O)N[C@@H](Cc1ccc(O)cc1)C(N)=O)[C@@H](C)O
notes: also called compound No. 53
B5: 4-Aminomethylbenzoyl-[Ala26, Phe(4NH2)27, Ile28,31]-PYY(25-36) (peptide)
peptide: [4Amb]RA[Phe(4-NH2)]INLITRQRY-NH2
modifications: N-terminus assumed
SMILES: CC[C@H](C)[C@H](NC(=O)[C@H](Cc1ccc(N)cc1)NC(=O)[C@H](C)NC(=O)[C@H](CCCNC(=N)N)NC(=O)c1ccc(CN)cc1)C(=O)N[C@@H](CC(N)=O)C(=O)N[C@@H](CC(C)C)C(=O)N[C@H](C(=O)N[C@H](C(=O)N[C@@H](CCCNC(=N)N)C(=O)N[C@@H](CCC(N)=O)C(=O)N[C@@H](CCCNC(=N)N)C(=O)N[C@@H](Cc1ccc(O)cc1)C(N)=O)[C@@H](C)O)[C@@H](C)CC
notes: also called compound No. 52
B6: 4-Aminomethylbenzoyl-[Ala26, Nle27, Ile28,31]-PYY(25-36) (peptide)
peptide: [4Amb]RA[Nle]INLITRQRY-NH2
modifications: N-terminus assumed
SMILES: CCCC[C@H](NC(=O)[C@H](C)NC(=O)[C@H](CCCNC(=N)N)NC(=O)c1ccc(CN)cc1)C(=O)N[C@H](C(=O)N[C@@H](CC(N)=O)C(=O)N[C@@H](CC(C)C)C(=O)N[C@H](C(=O)N[C@H](C(=O)N[C@@H](CCCNC(=N)N)C(=O)N[C@@H](CCC(N)=O)C(=O)N[C@@H](CCCNC(=N)N)C(=O)N[C@@H](Cc1ccc(O)cc1)C(N)=O)[C@@H](C)O)[C@@H](C)CC)[C@@H](C)CC
notes: also called compound No. 43
B7: 4-Aminomethylbenzoyl-[Ala26, Ile28,31, Nal(1)30]-PYY(25-36) (peptide)
peptide: [4Amb]RAYIN[1Nal]ITRQRY-NH2
modifications: N-terminus assumed
SMILES: CC[C@H](C)[C@H](NC(=O)[C@H](Cc1ccc(O)cc1)NC(=O)[C@H](C)NC(=O)[C@H](CCCNC(=N)N)NC(=O)c1ccc(CN)cc1)C(=O)N[C@@H](CC(N)=O)C(=O)N[C@@H](Cc1cccc2ccccc12)C(=O)N[C@H](C(=O)N[C@H](C(=O)N[C@@H](CCCNC(=N)N)C(=O)N[C@@H](CCC(N)=O)C(=O)N[C@@H](CCCNC(=N)N)C(=O)N[C@@H](Cc1ccc(O)cc1)C(N)=O)[C@@H](C)O)[C@@H](C)CC
notes: also called compound No. 55
B8: 4-Aminomethylbenzoyl-[Ala(cPr)26, Ile28,32]-PYY(25-36) (peptide)
peptide: [4Amb]R[Ala(cPr)]YINLITRQRY-NH2
modifications: N-terminus assumed
SMILES: CC[C@H](C)[C@H](NC(=O)[C@H](Cc1ccc(O)cc1)NC(=O)[C@H](CC1CC1)NC(=O)[C@H](CCCNC(=N)N)NC(=O)c1ccc(CN)cc1)C(=O)N[C@@H](CC(N)=O)C(=O)N[C@@H](CC(C)C)C(=O)N[C@H](C(=O)N[C@H](C(=O)N[C@@H](CCCNC(=N)N)C(=O)N[C@@H](CCC(N)=O)C(=O)N[C@@H](CCCNC(=N)N)C(=O)N[C@@H](Cc1ccc(O)cc1)C(N)=O)[C@@H](C)O)[C@@H](C)CC
notes: name prints Ile28,32; also called compound No. 48
B9: 4-Aminomethylbenzoyl-[Lys25, Ala26, Ile28,31]-PYY(25-36) (peptide)
peptide: [4Amb]KAYINLITRQRY-NH2
modifications: N-terminus assumed
SMILES: CC[C@H](C)[C@H](NC(=O)[C@H](Cc1ccc(O)cc1)NC(=O)[C@H](C)NC(=O)[C@H](CCCCN)NC(=O)c1ccc(CN)cc1)C(=O)N[C@@H](CC(N)=O)C(=O)N[C@@H](CC(C)C)C(=O)N[C@H](C(=O)N[C@H](C(=O)N[C@@H](CCCNC(=N)N)C(=O)N[C@@H](CCC(N)=O)C(=O)N[C@@H](CCCNC(=N)N)C(=O)N[C@@H](Cc1ccc(O)cc1)C(N)=O)[C@@H](C)O)[C@@H](C)CC
notes: also called compound No. 49
B10: 4-Aminomethylbenzoyl-[Ala26, Ile28,31, Aib29]-PYY(25-36) (peptide)
peptide: [4Amb]RAYI[Aib]LITRQRY-NH2
modifications: N-terminus assumed
SMILES: CC[C@H](C)[C@H](NC(=O)[C@H](CC(C)C)NC(=O)C(C)(C)NC(=O)[C@@H](NC(=O)[C@H](Cc1ccc(O)cc1)NC(=O)[C@H](C)NC(=O)[C@H](CCCNC(=N)N)NC(=O)c1ccc(CN)cc1)[C@@H](C)CC)C(=O)N[C@H](C(=O)N[C@@H](CCCNC(=N)N)C(=O)N[C@@H](CCC(N)=O)C(=O)N[C@@H](CCCNC(=N)N)C(=O)N[C@@H](Cc1ccc(O)cc1)C(N)=O)[C@@H](C)O
notes: also called compound No. 46

Non-standard residues stand in square brackets, D forms with d. No end group written: not given here. Phe(4-NH2) = Nc1ccc(C[C@H](N)C(=O)O)cc1; 1Nal = N[C@@H](Cc1cccc2ccccc12)C(=O)O; Arg(Me) = CNC(=N)NCCC[C@H](N)C(=O)O; Ala(cPr) = N[C@@H](CC1CC1)C(=O)O; 4Pal = N[C@@H](Cc1ccncc1)C(=O)O; 4Amb = NCc1ccc(C(=O)O)cc1; Nle = CCCC[C@H](N)C(=O)O; Aib = CC(C)(N)C(=O)O

The source of these data is patent publication US20120172293A1 (Takeda / Millennium, published 2012).

The target of one test is T1, human Y2 receptor (human, UniProt P49146 1-381).
T1 sequence (looked up): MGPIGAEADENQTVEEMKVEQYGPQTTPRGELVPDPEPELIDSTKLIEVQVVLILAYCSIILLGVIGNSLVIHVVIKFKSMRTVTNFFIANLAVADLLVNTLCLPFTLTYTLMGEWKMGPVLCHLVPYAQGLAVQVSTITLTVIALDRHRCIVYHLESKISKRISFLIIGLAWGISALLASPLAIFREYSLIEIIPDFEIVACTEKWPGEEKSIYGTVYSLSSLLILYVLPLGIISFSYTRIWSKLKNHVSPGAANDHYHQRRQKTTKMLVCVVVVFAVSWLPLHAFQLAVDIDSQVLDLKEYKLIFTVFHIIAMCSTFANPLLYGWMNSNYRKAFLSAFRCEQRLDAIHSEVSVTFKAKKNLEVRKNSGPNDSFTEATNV
Briefly: cell-based or functional assay.
Consider B1, for which the “GBA EC50 Ratio (vs PYY(3-36)), [35S]GTPγS” value amounted to 23 ratio.
On the same count and under the same terms, the figure for B2 is 2.6 ratio; for B3 it is 2.7 ratio.
Still for that read-out and setting: the figure for B4 is 7.5 ratio.
On to B5, for which the “GBA EC50 Ratio (vs PYY(3-36)), [35S]GTPγS” value amounted to 5.7 ratio.
Same read-out and setting: to B6 belongs 2.3 ratio; to B7, 3 ratio; to B8, 4.1 ratio.
The same measure, in the same setting: the figure for B9 is 24 ratio; for B10 it is 34 ratio.

Another test addresses T1, human Y2 receptor. Put plainly: RBA: [125I]-PYY displacement, hY2R/CHO membranes. The essentials:
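Bound radioligand was collected by filtration on PEI-treated GF/C filters, washed with Tris/MgCl₂/NaCl/CHAPS buffer pH 7.4, and counted by scintillation; IC₅₀ values were calculated.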
On to B1, for which the “IC50 Ratio (vs PYY(3-36))” value came to 49 ratio.
On the same count and under the same terms, the figure for B2 is 3.8 ratio; for B3 it is 6 ratio.
Same read-out and setting: the figure for B4 is 18 ratio; for B5 it is 11 ratio; for B6 it is 4.6 ratio.
Turning to B7, the “IC50 Ratio (vs PYY(3-36))” value was 3.4 ratio.
Still for that read-out and setting: the figure for B8 is 8.1 ratio; for B9 it is 34 ratio.
For the molecule B10, the “IC50 Ratio (vs PYY(3-36))” value turned out to be 87 ratio.
